*1 amine or outer side, *2 acyl side, *3 side chain or, on linkers, in order; H or OH if unused. Side-chain parts run from the residue outwards. [ ]: non-standard residue; d: D form. The star is where a group is joined. TTDS = 1,13-diamino-4,7,10-trioxatridecan-succinic acid spacer arm, O=C(CCC(=O)[*:2])NCCCOCCOCCOCCCN[*:1]; PEG5000 = COCH2CH2NH(CH2CH2O)nMe, about 5000 g/mol; γGlu = O=C(O)[C@H](CCC(=O)[*:2])N[*:1]; Arg(Me) = CNC(=N)NCCC[C@H](N)C(=O)O; Palmitoyl = CCCCCCCCCCCCCCCC(=O)* Some results are limits rather than exact numbers.

The source of these data is patent US20150361138A1 (INSTITUT NATIONAL DE LA RECHERCHE AGRONOMIQUE, published 2015).

B1: peptide compound C5, Ac-Tyr-Asn-Trp-Asn-Ser-PheΨ[Tz]GlyΨ[Tz]Leu-Arg-Tyr-NH2 (peptide)
peptide: Ac-YNWNSFGLRY-NH2
modifications: also: Phe6-Gly7 and Gly7-Leu8 peptide bonds replaced by 1,4-disubstituted 1,2,3-triazoles

T1 sequence (Q969F8 whole entry): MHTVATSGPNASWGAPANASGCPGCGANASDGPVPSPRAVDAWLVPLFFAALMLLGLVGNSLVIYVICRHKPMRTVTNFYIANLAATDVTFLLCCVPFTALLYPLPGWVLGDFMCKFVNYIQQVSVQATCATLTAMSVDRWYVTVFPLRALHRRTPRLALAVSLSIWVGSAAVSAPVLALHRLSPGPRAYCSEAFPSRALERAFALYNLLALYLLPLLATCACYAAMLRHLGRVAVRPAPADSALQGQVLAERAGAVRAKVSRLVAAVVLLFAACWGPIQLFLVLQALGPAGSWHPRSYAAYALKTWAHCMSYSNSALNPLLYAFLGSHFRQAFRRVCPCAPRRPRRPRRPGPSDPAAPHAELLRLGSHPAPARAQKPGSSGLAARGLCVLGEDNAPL

The first assay concerns the target T1, human KISS1R receptor (human, UniProt Q969F8 1-398). Put plainly: cell-based or functional assay.
Regarding Ac-YNK([γGlu-Palmitoyl])NSFGLRY-NH2 (also: Gly7-Leu8 peptide bond replaced by 1,4-disubstituted 1,2,3-triazole) [peptide compound C11, Ac-Tyr-Asn-Lys(γ-(N-hexadecanoyl-Glu-OH))-Asn-Ser-Phe-GlyΨ[Tz]Leu-Arg-Tyr-NH2], the “EC50 (nM), intracellular calcium mobilization of cells expressing human KISS1R” value turned out to be 90 nM.
Take Ac-YK([TTDS-γGlu-Palmitoyl])WNSFGLRY-NH2 (also: Gly7-Leu8 peptide bond replaced by 1,4-disubstituted 1,2,3-triazole): the “EC50 (nM), intracellular calcium mobilization of cells expressing human KISS1R” value was 0.079 nM.
Regarding {Palmitoyl-γGlu}-YNWNSFGLRY-NH2 (also: Gly7-Leu8 peptide bond replaced by 1,4-disubstituted 1,2,3-triazole) [peptide compound C9, γ-(N-hexadecanoyl-Glu-OH)-Tyr-Asn-Trp-Asn-Ser-Phe-GlyΨ[Tz]Leu-Arg-Tyr-NH2], the “EC50 (nM), intracellular calcium mobilization of cells expressing human KISS1R” value was less than 0.001 nM.
With {Palmitoyl-γGlu}-YNWNSFGL[Arg(Me)]Y-NH2 (also: Gly7-Leu8 peptide bond replaced by 1,4-disubstituted 1,2,3-triazole) [peptide compound C12, γ-(N-hexadecanoyl-Glu-OH)Tyr-Asn-Trp-Asn-Ser-Phe-GlyΨ[Tz]Leu-Arg(Me)-Tyr-NH2], the “EC50 (nM), intracellular calcium mobilization of cells expressing human KISS1R” value is less than 0.001 nM.
In the case of Ac-YK([γGlu-Palmitoyl])WNSFGLRY-NH2 (also: Gly7-Leu8 peptide bond replaced by 1,4-disubstituted 1,2,3-triazole) [peptide compound C8, Ac-Tyr-Lys(γ-(N-hexadecanoyl-Glu-OH))-Trp-Asn-Ser-Phe-GlyΨ[Tz]Leu-Arg-Tyr-NH2], the “EC50 (nM), intracellular calcium mobilization of cells expressing human KISS1R” value was 1.38 nM.
On the same count and under the same terms, next, Ac-YK(2‑(succinamido)‑6‑(4-(4-iodophenyl)butanamido)hexanoate)WNSFGLRY-NH2 (also: Gly7-Leu8 peptide bond replaced by 1,4-disubstituted 1,2,3-triazole): 0.001 nM; Ac-YK(PEG5000)WNSFGLRY-NH2 (also: Gly7-Leu8 peptide bond replaced by 1,4-disubstituted 1,2,3-triazole) [peptide compound C16, Ac-Tyr-Lys(PEG5000)-Trp-Asn-Ser-Phe-GlyΨ[Tz]Leu-Arg-Tyr-NH2]: 4.17 nM.

Another assay addresses T1, human KISS1R receptor. In words: cell-based or functional assay. This is another data set of the same source.
In the case of Ac-YNWNSFGLRY-NH2 [peptide compound Comp.3, Ac-Tyr-Asn-Trp-Asn-Ser-Phe-Gly-Leu-Arg-Tyr-NH2], the “EC50 (nM), intracellular calcium mobilization of cells expressing human KISS1R” value amounted to 0.1 nM.
Same read-out and setting: next, Ac-YNWNSFGL[Arg(Me)]Y-NH2 (also: Gly7-Leu8 peptide bond replaced by 1,4-disubstituted 1,2,3-triazole) [peptide compound C3, Ac-Tyr-Asn-Trp-Asn-Ser-Phe-GlyΨ[Tz]Leu-Arg(Me)-Tyr-NH2]: 0.014 nM; H-YNWNSFGLRY-NH2 [comparative peptide compound Comp.1 (mKP10), H-Tyr-Asn-Trp-Asn-Ser-Phe-Gly-Leu-Arg-Tyr-NH2]: 2.9 nM; Ac-YNK(Ac)NSFGL[Arg(Me)]Y-NH2 (also: Gly7-Leu8 peptide bond replaced by 1,4-disubstituted 1,2,3-triazole) [peptide compound C4, Ac-Tyr-Asn-Lys(Ac)-Asn-Ser-Phe-GlyΨ[Tz]Leu-Arg(Me)-Tyr-NH2]: 0.011 nM.
On to B1, for which the “EC50 (nM), intracellular calcium mobilization of cells expressing human KISS1R” value was 44 nM.
The same measure, in the same setting: with Ac-YNWNSFGLRY-NH2 (also: Gly7-Leu8 peptide bond replaced by 1,4-disubstituted 1,2,3-triazole) [peptide compound C2, Ac-Tyr-Asn-Trp-Asn-Ser-Phe-GlyΨ[Tz]Leu-Arg-Tyr-NH2] the figure was 0.029 nM; with H-YNWNSFGLRY-NH2 (also: Gly7-Leu8 peptide bond replaced by 1,4-disubstituted 1,2,3-triazole) [peptide compound C1, H-Tyr-Asn-Trp-Asn-Ser-Phe-GlyΨ[Tz]Leu-Arg-Tyr-NH2], 0.5 nM.

A further assay has as its target T1, human KISS1R receptor. In words: cell-based or functional assay. This is another data set of the same source.
“peptide compound C6, Ac-DTyr-DTrp-Asn-Thr-Phe-GlyΨ[Tz]Leu-Arg(Me)-Trp-NH2”: the EC50 (nM), intracellular calcium mobilization of cells expressing human KISS1R was found to be 0.01 nM.
Regarding “peptide compound C7, Ac-DTyr-Hyp-Asn-Thr-Phe-GlyΨ[Tz]Leu-Arg(Me)-Trp-NH2”, the EC50 (nM), intracellular calcium mobilization of cells expressing human KISS1R stood at 0.014 nM.
